The data set “cryo-EM structure” deals with the molecule itself. The data set can be described thus: cryo-EM structure.
For data set [1], the target named is CUL3 N-terminal domain (CUL3^NTD, residues 1-381) (UniProt Q13618 1-381). The experiment in a line: BLI. In general terms: Biolayer interferometry detects binding as a change in optical thickness at a sensor tip.
Chain of CUL3 N-terminal domain (CUL3^NTD, residues 1-381) (Q13618 1-381): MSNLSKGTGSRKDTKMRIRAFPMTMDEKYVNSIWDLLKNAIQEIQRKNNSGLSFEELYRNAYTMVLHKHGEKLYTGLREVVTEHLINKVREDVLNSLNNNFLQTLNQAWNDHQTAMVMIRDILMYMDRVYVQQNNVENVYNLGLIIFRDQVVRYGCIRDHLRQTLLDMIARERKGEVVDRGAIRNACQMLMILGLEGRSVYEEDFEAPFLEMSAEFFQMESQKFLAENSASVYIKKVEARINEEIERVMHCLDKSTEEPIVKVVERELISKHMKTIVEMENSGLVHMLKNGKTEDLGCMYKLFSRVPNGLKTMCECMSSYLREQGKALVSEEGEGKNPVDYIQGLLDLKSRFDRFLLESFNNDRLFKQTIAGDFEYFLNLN

B1: KCTD5 (full-length, purified; SEC and cryo-EM samples) (natural protein)
chain: MAENHCELLSPARGGIGAGLGGGLCRRCSAGLGALAQRPGSVSKWVRLNVGGTYFLTTRQTLCRDPKSFLYRLCQADPDLDSDKDETGAYLIDRDPTYFGPVLNYLRHGKLVINKDLAEEGVLEEAEFYNITSLIKLVKDKIRERDSKTSQVPVKHVYRVLQCQEEELTQMVSTMSDGWKFEQLVSIGSSYNYGNEDQAEFLCVVSKELHNTPYGTASEPSEKAKILQERGSRM
Turning to B1, the stoichiometry N (as a rule, a count of units in the complex or per binding partner) in the data set “cryo-EM structure” was 5.

B2: Thioredoxin-fusion KCTD5 (natural protein)
chain: MAENHCELLSPARGGIGAGLGGGLCRRCSAGLGALAQRPGSVSKWVRLNVGGTYFLTTRQTLCRDPKSFLYRLCQADPDLDSDKDETGAYLIDRDPTYFGPVLNYLRHGKLVINKDLAEEGVLEEAEFYNITSLIKLVKDKIRERDSKTSQVPVKHVYRVLQCQEEELTQMVSTMSDGWKFEQLVSIGSSYNYGNEDQAEFLCVVSKELHNTPYGTASEPSEKAKILQERGSRM
Regarding B2, the affinity in data set [1], expressed as Kd, was 30 nM.

B3: KCTD5 L161R (natural protein)
chain: MAENHCELLSPARGGIGAGLGGGLCRRCSAGLGALAQRPGSVSKWVRLNVGGTYFLTTRQTLCRDPKSFLYRLCQADPDLDSDKDETGAYLIDRDPTYFGPVLNYLRHGKLVINKDLAEEGVLEEAEFYNITSLIKLVKDKIRERDSKTSQVPVKHVYRVRQCQEEELTQMVSTMSDGWKFEQLVSIGSSYNYGNEDQAEFLCVVSKELHNTPYGTASEPSEKAKILQERGSRM
Regarding B3, in data set [1], the binding result is listed as “binds”.

The values above are taken from article doi:10.1101/2023.09.20.558662 (bioRxiv, 2023).
